Laboratory results published in the nanobody polyreactivity screen of Harvey et al. (2022).

Assay: yeast display, Sf9 membrane polyspecificity reagent, FACS + sequencing; frameworks hold sequencing errors
Procedure, shortened: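 A synthetic nanobody library was expressed on Saccharomyces cerevisiae BJ5465 by galactose induction for 36–48 hours. The library was stained for 1 hour at 4 °C with 10% biotinylated, detergent-solubilized Sf9 membrane reagent and enriched with streptavidin microbeads before FACS. Low and high (top ~1%) gates were set on anti-HA fluorescence for expression and streptavidin fluorescence for reagent binding, and each polyreactivity label reflects the gate of origin.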

Row | Sequence | polyreactivity (PSR sort gate)
1 | QVQLVESGGGLVQAGGSLRLSCAASGRIFRDYAMGAYRPAPGKERELGATITRSGGRTYYADSVKGRFTISRDNAKNTVYLQMNSLKPEDTAVYYCAARWRIVSGRFDYWGQGTQVTVSS | high polyreactivity
2 | QVQLVESGGGLVQAGGSLRLSCAASGFTFTAYAMGWYRQAPGKERELVAAINWSGSRTYYADSVKGRFTISRDNAKNTVYLQMNSLIPEDSAVYYCNTATSKSSYRHYDYWGQGTQVTVSS | high polyreactivity
3 | QVQLVESGGGLVQAGGSLRLSCAASGFTFAYNAMGWYRPAPGKERELVAAISGRGVSTYYADSVKGRFTISRDNAKNTVYLQMNSLKPEDTAVYYCAKRYRYWTTERYDYWGQGTQVTVSS | high polyreactivity
4 | QVQLVESGGGLVQAGGSLRLSCAASGSTFRYYAMGWYRQAPGKERELVAAITWGGGNTYYADSVKGRFTISRDNAKNTVYLQMNSLKPEDTAVYYCNKVQSHWLDSWGQGTQVTVSS | low polyreactivity
5 | QVQLVESGGGLVQAGGSLRLSCAASGSIFGVYTLGWYRQAPGKERELVAAISGSGGSTSYADSVKGRFTISRDNAKNTVYLQMTSLKPEDTAGYYCATRFPNIPPYDSLGQGTQVTVSS | low polyreactivity
6 | QVQLVESGGGLVQAGGSLRLSCAASGSIFYHNAMGWYSPAPGKERELVAAISASGSTYYADSVKGRFTISRDNAKNTVSLQMNSLKTEDTAVYYCTFYWYNYWGQGTQVTVSS | high polyreactivity
7 | QVQLVESGGGLVQAGGSLLLSCAASGSTFDWYVMGWYRPAPGKERELVAAINQGSGSTYYADSVKGRFTISRDNAKNTVYLQMNSLKPEDTAVYYCAADRYGAGYLYWPYDYWGQGTQVTVSS | low polyreactivity
8 | QVQLVESGGGLVQAGGSLRLSCAASGFTLTLRYAMGLYRQAPGKERELVAAISSGGRTKYADSVKGRFTISRDNAKNTVYLQMNSRKPEDTAVYYCNAVTQREYEEGDYWGQGTQVTVSS | high polyreactivity
9 | QVQLVESGGGLVQAGGSLRLSCAASGITFGPYAMGWYRQAPGKERELVAAISSGGRTNYADSVKGRFTISRDNAKNTVYLQMNSLKPEDTAVYYCAARFAYFREYGTYYYWGQGTQVTVSS | high polyreactivity
10 | QVQLVESGGGLVQAGGSLRLSCAPSGSIFSWYAMGWYRQAPGKERELVAAIDDDDSTNYADSVKGRFTISRDNAKNTVYLQMNSQKPEDTAVYYCNTRSRPYWYIYRPGDYWGQGTQVTVSS | low polyreactivity
11 | QVQLVESGGGLVQAGGSLRLSCAASGFTFRYYTMGWYRQAPGKERELVAAINRSGSTNYADSVKGRFTISRDNAKNTVYLQMNSLKPEDTAVYYCAAAYYGSHGRYDYWGQGTQVTVSS | high polyreactivity
12 | QVQLVESGGGLVQAGGSLRLSCAASGSIFSRYAMGWYRQAPGKERELVAAISGRGGGTYYADSVKGRFTISRDNAKNTVYLQKNSMKPEDTAVYYCAAQLGRPAYSRVSWRAYYYWGQGTQVTVSS | low polyreactivity
13 | QVQLVESGGGLVQAGGSLRLSCAASGIIFPTYAMGWYRQAPGKERELVAAISVSGGTTSYADSVKGRFTISRDNAKNTVYLQMNSLKPEDTAVYYCAARKYSYPVAAHYYWGQGTQVTVSS | high polyreactivity
14 | QVQLVESGGGLVQAGGSLRLSCAASGSIFDNNAMGSYRQAPGKERELVAGINWDDGSTYYADSVKGRFTISRDNAKNTVHLQMISLKPEETAVYYCARDVYVYRWNDFWAVWTWYDYWGQGTQVTVSS | low polyreactivity
15 | QVQLVESGGGLVQAGGSHRLSCAASGSTFPAYAMGLYRQAPGKERELVAAINTTGGNTYYADSVKGRFTISRDNAKNTVYFQMNSLKPEDTAVYYCAADYKARYSEKFDYWGQGTQVTVSS | low polyreactivity
16 | QVQLVESGGGLVQAGGSLRLSCAASGSIFSSNAMVWYRPAPGKERELVAAIDYSGGRTYYADSVKGRFTISRDNPKNTVYLQMNSLKPEDTAVYYCAKLIPVHSRYDYWGQGTQVTVSS | low polyreactivity
17 | QVQLVESGGGLVQAGGSLRLSCAASGFTFGYYAMGCYRQAPGKERELVAAISWSGGSTYYADSVKGRFTISRDNAKNTVYLQMNSLKPEDSAVYYCAAQSYLGRTWLDYWGQGTQVTVSS | high polyreactivity
18 | QVQLVESGGGLVQAGGSLRLSCAASGLTFKWYAMGWYRPAPGKERELVAAISRDGSTYYADSVKGRFTISRDNAKNTVYLQMNSLKPEDTAVYNCAADIWPSSLLADEYDYWGQGTQVTVSS | high polyreactivity
19 | QVQLVESGGGLVQAGGSLRLSCAASGFIFDSYAMGWYRQAPGKERELVAAISWSGGRTYYADSVKGRFTISRDNAKYTVYLQMNSLKPEDTAVYYCNVRTKLSSSYDYWGQGTQVTVSS | high polyreactivity
20 | QVQLVESGGGLFQAGGSLRLSCAASGSNFDYNAMGWYRPAHGKERELVAAITSTDSTYADSVKGRFTISRDTAKNTVYLQMNRLKPEDTAVYYCAAEDVIYYLTGQWREYDYWGQGTQVTVSS | low polyreactivity
21 | QVQLVESGGGLVQAGGSLRLSCAASGSIFRPYAMGWYRQAPGKERELVAAISGSGGTTYYADSVKGRFTISRDNAKNTVYLQMNSLKTEETAVYYCAARNFSAFWLGGYDYWGQGTQVTVSS | low polyreactivity
22 | QVQLVESGGGLVQAGGSLRLSCAASGFIFNKYAMGWYRQAPGKERELVATIRRDGSTNYADSVKGRFTISRDNAKNTVYLQMNSLKPEDTAVYYCAVRPYYWSRDYYWGQGTQVTVSS | high polyreactivity

Row | Sequence | polyreactivity (PSR sort gate)
23 | QVQLVESGGGIVQAGGSLRLSCAASGYTFPRYAMGWYRQAPGKERELVAAITSRGGSTYYADSVKGRFTISRDNAKNTVYLQMNSLKPEDTAVYYCAVLGFGALDFDSWGQGTQVTVSS | high polyreactivity
24 | QVQLVESGGGLVQAGGILRFSCAASGSTFGLNAMGWYRQAPGQERELVAAISWSGGTTYYADSVKGRFTISRDNAKNTVYLQMNSLTPEDTAVYYCAADVYSSWGYYEVYYWGQGTQVTVSS | high polyreactivity
25 | QVQLVESGGGLVEAGGSLRLSCAASGSIFRINAMGWYRQAPGKERELVAAISTLSGRTYYADSVKGRFTISRDNAKITVYLQMNSLKPEDTAVYYCAVGQARAGLIGGYWGQGTQVTVSS | high polyreactivity
26 | QVQLVESGGGLVQAGGSLRLSCAASGNIFSPYAMGWYRPAPGKERELVAAISSGDSTYYADSVKGRFTISRDNAKNTVYLQMNSLKPEDTAVYYCAADANYSNYQYYEFDYWGQGTQVTVSS | low polyreactivity
27 | HVQLVESGGGLVQAGVSLRLSCAASGRIFVLYTRGWYRQAPGKDRELVAAISRRGGNTNYADSVKGRFTISRDNAMNTVYLQMNSLKPEDTAVYYCNARWTGARYYYYPMDYWGQGTQVTVSS | high polyreactivity
28 | QVQLVESGGGLVQAGGSLRLSCAASGSTFGQYAMGWYRQAPGKERELVAAISRNGGRTYYADSVKGRFTISRDNAKNTVYLQMNSLKPEDTAVYYCAAGGFHYVYYRGMYYWGQGTQVTVSS | high polyreactivity
29 | HVQLVESGGGLVQAGGSLRLSCGASGRIFRGNVMGWYRQAPGTERELVAAISWSGGSSYADAVKGRFSISRDNAKNTVYLQMNRLKPDDTAVYYWNADSLDGPKFDYWGQGTQVTVSS | low polyreactivity
30 | QVQLVESGGGLVQAGGSLRLSCAASGSTFVWYVMGWYRQAPGNERELVAAISRSGGTTFYADSVKGRFTISRANAKNTVYLQMNSLKPEDTAVYYCAAEDVAYRPGYDYWGQGTQVTVSS | high polyreactivity
31 | QVQHVESGGGLLQAGGSLRLSCPASGRTFTVYALGWYRQAPGKDRELVAAFSRSGGRTYYADSVKGRFTISRDNAKNTVYLQRNSLKPEDTAVYYCAADDPYRTNDFDYWGQGTQVTVSS | high polyreactivity
32 | QVQLVESGGGLVQAGGILRLSCAASGRIYEIYAMGWYRQAPGKDRELVAAISWRGVSTYYADSVKGPFTISRDNAKNNVYLQMNSLKPEDTAVYYCNKDVDYFWYVEYDYWGQGTQVTVSS | low polyreactivity
33 | QDQLVESGGGLVQAGGSLRLICAASGRTFTFYAMGWSRQAPGKERELVAAIRRGGSTNYADSVKGRFTISRDNAKNTVYLQMNSLKPEDTAVYYCNKRVWYPYWTLDYWGQGTQVTVSS | low polyreactivity
34 | QVQLVESGGGLVQAGGSLRLSCAASGIIFDYYAMGWYRQAPGKERELVASNSWSGGGTYYADSVKGRFTISRDNAKNTVYFQMNRLNPEDTAVYYCAADGSTVNAPRWSDPYDYWGQGTQVTVSS | low polyreactivity
35 | QVQLVESGGGLVQAGGSLRLSCAASGSTFRYNTMGWYRQAPGKERELVAAINISSSSTYYADSVKGRFTISRDNAKNTVYLQMNSLKPEDTAVYYCAKRDFVPIATDENDDYWGQGTQVTVSS | low polyreactivity
36 | QVQLVESGGALVQAGGSLRLSCAASGSTFPYYAMGWYRQAPGKERELVAAISRGGGITYYADSVKGRLTISRDNAKNTVYLQMISLKPEDTAVYYCAARGFWWPYTYYYWGQGTQVTVSS | high polyreactivity
37 | QVQLVESGGGLVQAGGSLRLSCAASGNIFYGYAMGWYRQAPGKERELVAAITSSGGGTSYADSVKGRFTISRDNAKNTVYLQMNSLKPVDTAVYYCTKRPWYLSDYWGQGTQVTVSS | low polyreactivity
38 | QVQLVESGGGLVQAGGSLRLSCAASGSIFIYAMGWYRQAPGKERELVATISWSGTSTYSDSVKGRFTISRDNAKNTVYLQMNSLKPEDTAVYYCNKLKRTYYSSGYPHDYWGQGTQVTVSS | low polyreactivity
39 | QVQLEESGGALVQAGGSLRLSCAASGRTFSGNAMGWYRQAPGKERELVAAISSGGSTNYADSVKGRFTISRDNAKNTVYLQMNSLKPEDTAVYYCAADEWRFPSYAYYYWGQGTQVTVSS | low polyreactivity
40 | QVQLVESGGGLVQAGGSLRLSCAASGRTFGKNAMGWYRQAPGKEREFVAAITSRGGSTYYADSVKGRFTISRDNAKNTVYLQMNSLIPEDTAFYYCNREYKRPSQRTEHYYWGQGTQVTVSS | low polyreactivity
41 | QVQLVESGGGLVQAGGSLRLSCAASGRTFSYYAMGWYRQAPGKERELVASITSGGRTYYADSVKGRFTISRDNAKNTFYLQMNSLKPEDTAVYYCNVDNQYLDRYGRRYGYWGQGTQVTVSS | low polyreactivity
42 | QVQLVESGGGLVQAGGSLRLSCAASGRIFDDNAMGWYRQAPGKERELVAAISSGDSTKYADSVKGRFTISRDNAKNTVYLQMNSLKPEDTAVYYCNRRKTNSRYDYWGQGTQVTVSS | low polyreactivity
43 | QVQLVESGGGLVQAGGSLRLSCAASGSTFLVYAMGWYRQAPGKERELVAAINFSGSSTYYADSVKGRFTISRDNAENTVYLQMNSLKPEDTAVYYCAADSLELWYGYFWVKVPYDYWGQGTQVTVSS | low polyreactivity
